# Test results as given in patent US20190083585.
# Changes are numbered by the printed parent chain. Names and notes keep the numbering of the source.
# T1: Suc-APR-pNA
# T1 chain: APR
# T2: fluorescently quenched α-gliadin hexapeptide analogue QXL520-PQPQLP-K(5-FAM)-NH2
# T2 chain: PQPQLP
# T3: Suc-APE-pNA
# T3 chain: APE
# T4: Suc-APQ-pNA
# T4 chain: APQ
# T5: immunodominant α9-gliadin peptide QLQPFPQPQLPY
# T5 chain: QLQPFPQPQLPY
# B1: Kumamolisin-As (wild type) (protein)
# chain: AAPTAYTPLDVAQAYQFPEGLDGQGQCIAIIELGGGYDEASLAQYFASLGVPAPQVVSVSVDGASNQPTGDPSGPDGEVELDIEVAGALAPGAKFAVYFAPNTDAGFLDAITTAIHDPTLKPSVVSISWGGPEDSWTSAAIAAMNRAFLDAAALGVTVLAAAGDSGSTDGEQDGLYHVDFPAASPYVLACGGTRLVASGGRIAQETVWNDGPDGGATGGGVSRIFPLPAWQEHANVPPSANPGASSGRGVPDLAGNADPATGYEVVIDGEATVIGGTSAVAPLFAALVARINQKLGKAVGYLNPTLYQLPADVFHDITEGNNDIANRAQIYQAGPGWDPCTGLGSPIGVRLLQALLPSASQPQPGSTENLYFQSGALEHHHHHH
# B2: Kumamolisin-As D358N (protein)
# chain: B1 chain with D169N
# B3: KumaMax™ (Kumamolisin-As V119D, S262K, N291D, D293T, G319S, D358G, D368H) (protein)
# chain: B1 chain with S73K, N102D, D104T, G130S, D169G, D179H
# B4: Kumamolisin-As N291D, G319S, D358G, D368H (protein)
# chain: B1 chain with N102D, G130S, D169G, D179H
# B5: Kumamolisin-As S262K, D293N, N291D, G319S, D358G, D368H (protein)
# chain: B1 chain with S73K, N102D, D104N, G130S, D169G, D179H
# B6: Kumamolisin-As D293A (protein)
# chain: B1 chain with D104A
# B7: Kumamolisin-As G319S, D368S (protein)
# chain: B1 chain with G130S, D179S
# B8: Kumamolisin-As D358G (protein)
# chain: B1 chain with D169G
# B9: Kumamolisin-As G319S, D358G, D368H (protein)
# chain: B1 chain with G130S, D169G, D179H
# B10: Kumamolisin-As N291D, D293A, G319S, S354N, D358G, Q361D, D368H (protein)
# chain: B1 chain with N102D, D104A, G130S, S165N, D169G, Q172D, D179H
# B11: Kumamolisin-As N291D, G319S, S354N, D358G, D368H (protein)
# chain: B1 chain with N102D, G130S, S165N, D169G, D179H
# B12: Kumamolisin-As T357A (protein)
# chain: B1 chain with T168A
# B13: Kumamolisin-As D358G, D368H (protein)
# chain: B1 chain with D169G, D179H
# B14: Kumamolisin-As G319S, S354N, D358G, D368H (protein)
# chain: B1 chain with G130S, S165N, D169G, D179H
# B15: Kumamolisin-As D293T, N291D, G319S, D358G, D368H (protein)
# chain: B1 chain with N102D, D104T, G130S, D169G, D179H
# Legend:
# Suc-APR-pNA = molecular target: T1, Suc-APR-pNA
# [1] = molecular target: T2, fluorescently quenched α-gliadin …
# Suc-APE-pNA = molecular target: T3, Suc-APE-pNA
# Suc-APQ-pNA = molecular target: T4, Suc-APQ-pNA
# [2] = molecular target: T5, immunodominant α9-gliadin peptide …
protein,measurement,setting,value
B1,Catalytic Efficiency (kcat/KM),Suc-APR-pNA,132 M⁻¹ s⁻¹
same,Catalytic Efficiency (kcat/KM),[1],4.9 M⁻¹ s⁻¹
same,Fold Change in Activity of PQ Hydrolysis Relative to Wild Type Kumamolysin-As,[1],1 fold
same,Catalytic Efficiency (kcat/KM),Suc-APE-pNA,4 M⁻¹ s⁻¹
B2,Fold Change in Activity of PQ Hydrolysis Relative to Wild Type Kumamolysin-As,[1],4 fold
B3,Catalytic Efficiency (kcat/KM),[1],568 M⁻¹ s⁻¹
same,Fold Change in Activity of PQ Hydrolysis Relative to Wild Type Kumamolysin-As,[1],120 fold
same,Catalytic Efficiency (kcat/KM),Suc-APQ-pNA,6.7 M⁻¹ s⁻¹
same,Catalytic Efficiency (kcat/KM),Suc-APE-pNA,1.4 M⁻¹ s⁻¹
same,fold decrease in activity compared to its activity on the PQ substrate,Suc-APE-pNA,roughly 5-fold decrease in activity on the PE peptide substrate compared to its activity on the PQ substrate
same,"fraction of immunogenic peptide proteolyzed after 50 minutes (LC-MS, pH 4, 37° C.)",[2],over 95% of the immunogenic peptide had been proteolyzed after a 50 minute incubation
same,half-life of the peptide in the presence of KumaMax,[2],8.5 ± 0.7 min
B4,Fold Change in Activity of PQ Hydrolysis Relative to Wild Type Kumamolysin-As,[1],93 fold
B5,Fold Change in Activity of PQ Hydrolysis Relative to Wild Type Kumamolysin-As,[1],62 fold
B6,Fold Change in Activity of PQ Hydrolysis Relative to Wild Type Kumamolysin-As,[1],3 fold
B7,Fold Change in Activity of PQ Hydrolysis Relative to Wild Type Kumamolysin-As,[1],2 fold
B8,Fold Change in Activity of PQ Hydrolysis Relative to Wild Type Kumamolysin-As,[1],3 fold
B9,Fold Change in Activity of PQ Hydrolysis Relative to Wild Type Kumamolysin-As,[1],7 fold
B10,Fold Change in Activity of PQ Hydrolysis Relative to Wild Type Kumamolysin-As,[1],58 fold
B11,Fold Change in Activity of PQ Hydrolysis Relative to Wild Type Kumamolysin-As,[1],54.6 fold
B12,Fold Change in Activity of PQ Hydrolysis Relative to Wild Type Kumamolysin-As,[1],2 fold
B13,Fold Change in Activity of PQ Hydrolysis Relative to Wild Type Kumamolysin-As,[1],6 fold
B14,Fold Change in Activity of PQ Hydrolysis Relative to Wild Type Kumamolysin-As,[1],5 fold
B15,Fold Change in Activity of PQ Hydrolysis Relative to Wild Type Kumamolysin-As,[1],58 fold
